The record followed here is the PETadex activity labels (doi:10.1126/science.aad6359).

Substrate in one data set: BHET
In words: Proxy for plastic degradation [kcat] (s⁻¹). The settings on record: pH 7.

Substrate in the next data set: hcPET
The experiment in a line: Proxy for plastic degradation [Released monomer concentration (HPLC/LC-MS) (MHET+TPA)]. As to conditions: pH 9.

Substrate in another data set: PET
In words: Proxy for plastic degradation [Released monomer concentration (HPLC/LC-MS) (TPA+MHET+BHET)].

Substrate in a further data set: MHET
As to conditions: pH 7; 30 °C; part of the chain shown.

Substrate in data set [1]: pNP-C2; pNP-C4; pNP-C6; pNP-C8
The experiment in a line: Proxy for plastic degradation [kcat] (s⁻¹). As to conditions: pH 7.

B1: unnamed (protein)
chain: MAVMTPRRERSSLLSRALQVTAAAATALVTVSLAAPAHAANPYARGPNPTDALLEASSGPFSVSEENVSRLSASGFGGGIYYPRENNTYGAVAISPGYTGTEASIAWLGERIASHGFVVITIDTITTLDQPDSRAEQLNAALNHMINRASSTVRSRIDSSRLAVMGHSMGGGGTLRLASQRPDLKAAIPLTPWHLNKNWSSVTVPTLIIGADLDTIAPVATHAKPFYNSLPSSISKAYLELDGATHFAPNIPNKIIGKYSVAWLKRFVDNDTRYTQFLCPGPRDGLFGEVEYRSTCPF
In the case of B1, the “Proxy for plastic degradation” value turned out to be 0.03 in the data set with BHET; 0.001 mM with hcPET; 0.003 mM with PET (pH 7); 0.0001 mM in the data set with PET (pH 9, 20 °C); 0.0001 mM with PET (pH 9, 30 °C); 0.0001 mM with PET (pH 9, 35 °C). Also, the “Proxy for plastic degradation” value came out at 0.001 mM with PET (pH 9, 40 °C); 0.009 mM in the data set with PET (pH 9, 50 °C); 0.015 mM with PET (pH 9, 60 °C); 0.01 mM in the data set with PET (pH 9, 70 °C); 0.001 mM with PET (pH 9, 80 °C).

B2: unnamed (protein)
chain: MQTTVTTMLLASVALAACAGGGSTPLPLPQQQPPQQEPPPPPVPLASRAACEALKDGNGDMVWPNAATVVEVAAWRDAAPATASAAALPEHCEVSGAIAKRTGIDGYPYEIKFRLRMPAEWNGRFFMEGGSGTNGSLSAATGSIGGGQIASALSRNFATIATDGGHDNAVNDNPDALGTVAFGLDPQARLDMGYNSYDQVTQAGKAAVARFYGRAADKSYFIGCSEGGREGMMLSQRFPSHYDGIVAGAPGYQLPKAGISGAWTTQSLAPAAVGLDAQGVPLINKSFSDADLHLLSQAILGTCDALDGLADGIVDNYRACQAAFDPATAANPANGQALQCVGAKTADCLSPVQVTAIKRAMAGPVNSAGTPLYNRWAWDAGMSGLSGTTYNQGWRSWWLGSFNSSANNAQRVSGFSARSWLVDFATPPEPMPMTQVAARMMKFDFDIDPLKIWATSGQFTQSSMDWHGATSTDLAAFRDRGGKMILYHGMSDAAFSALDTADYYERLGAAMPGAAGFARLFLVPGMNHCSGGPGTDRFDMLTPLVAWVERGEAPDQISAWSGTPGYFGVAARTRPLCPYPQIARYKGSGDINTEANFACAAPP
In the case of B2, in the data set with MHET, the Km came to 7.3 µM, the turnover number (kcat) turned out to be 31 s⁻¹ and the kcat/Km worked out at 4.25e+06 s⁻¹ M⁻¹.

B3: unnamed (protein)
chain: MNFPRASRLMQAAVLGGLMAVSAAATAQTNPYARGPNPTAASLEASAGPFTVRSFTVSRPSGYGAGTVYYPTNAGGTVGAIAIVPGYTARQSSIKWWGPRLASHGFVVITIDTNSTLDQPSSRSSQQMAALRQVASLNGTSSSPIYGVKTARMVMGWSMGGGGSLISAANNPSLKAAAPQAPWDSSTNFSSVTVPTLIFACENDSIAPVNSSALPIYDSMSRNAKQFLEINGGSHSCANSGNSNQALIGKKGVAWMKRFMDNDTRYSTFACENPNSTRVSDFRTANCS
With B3, the “Proxy for plastic degradation” value in the data set with BHET is 0.8; in data set [1], 0.005; with hcPET, 0.01 mM; in the data set with PET (0 h), 0 mM; with PET (pH 7), 0.32 mM; with PET (pH 9, 20 °C), 0.001 mM. In addition, the “Proxy for plastic degradation” value was found to be 0.01 mM with PET (pH 9, 30 °C); 0.02 mM with PET (pH 9, 35 °C); 0.03 mM in the data set with PET (pH 9, 40 °C); 0.005 mM with PET (pH 9, 50 °C); 0.0001 mM with PET (pH 9, 60 °C); 0.0001 mM in the data set with PET (pH 9, 70 °C). Also, in the data set with PET (pH 9, 80 °C), the “Proxy for plastic degradation” value was 0.0001 mM.

B4: unnamed (protein)
chain: MDGVLWRVRTAALMAALLALAAWALWASPSVEAQSNPYQRGPNPTRSALTADGPFSVATYTVSRLSVSGFGGGVIYYPTGTSLTFGGIAMSPGYTADASSLAWLGRRLASHGFVVLVINTNSRFDYPDSRASQLSAALNYLRTSSPSAVRARLDNARLAVAGHSMGGGGTLRIAEQNPSLKAAVPLTPWHTDKTFNTSVPVLIVGAEADTVAPVSQHAIPFYQNLPSTTPKVYVELDNASHFAPNSNNAAISVYTISWMKLWVDNDTRYRQFLCNVNDPALSFDRTNNRHCQ
With B4, the “Proxy for plastic degradation” value turned out to be 0.1 with BHET; 0.001 mM with hcPET; 0.05 mM with PET (pH 7); 0.0005 mM in the data set with PET (pH 9, 20 °C); 0.01 mM with PET (pH 9, 30 °C); 0.01 mM with PET (pH 9, 35 °C). In addition, the “Proxy for plastic degradation” value was 0.15 mM in the data set with PET (pH 9, 40 °C); 1.2 mM with PET (pH 9, 50 °C); 3.5 mM with PET (pH 9, 60 °C); 2 mM with PET (pH 9, 70 °C).
